From patent US20200207830A1, “TREM2 MUTANTS RESISTANT TO SHEDDASE CLEAVAGE” (NOVARTIS AG, priority 2017, published 2020)
No end group written: not given here.

T1: ADAM10 (Homo sapiens, UniProt O14672)
T1 sequence (O14672 214-748): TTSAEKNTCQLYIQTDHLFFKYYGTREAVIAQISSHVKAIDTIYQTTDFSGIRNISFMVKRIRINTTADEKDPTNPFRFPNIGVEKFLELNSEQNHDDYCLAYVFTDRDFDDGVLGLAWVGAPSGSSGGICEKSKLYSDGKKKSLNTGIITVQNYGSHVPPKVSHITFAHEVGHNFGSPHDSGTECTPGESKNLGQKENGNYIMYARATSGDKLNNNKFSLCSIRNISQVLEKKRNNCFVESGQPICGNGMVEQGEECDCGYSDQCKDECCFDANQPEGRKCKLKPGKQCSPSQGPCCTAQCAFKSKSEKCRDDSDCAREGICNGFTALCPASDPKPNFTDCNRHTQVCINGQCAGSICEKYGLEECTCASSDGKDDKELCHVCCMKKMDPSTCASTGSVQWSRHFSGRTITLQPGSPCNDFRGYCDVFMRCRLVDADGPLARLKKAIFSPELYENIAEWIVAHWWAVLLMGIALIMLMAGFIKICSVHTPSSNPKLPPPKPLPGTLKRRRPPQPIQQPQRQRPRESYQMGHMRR


Legend:
[1] = system: CHO-hDAP12-hTREM2 cells; test: Live cell imaging of TREM2 cell surface expression in CHO-hDAP12-hTREM2 cells; assay type: cell-based; conditions: overnight treatment
Source text: (§1) CHO cells were transfected to co-express hDAP12 and hTREM2 using Lipofectamine LTX reagent (Thermofischer) according to the manufacturer's recommendations. One positive clone was selected and designated CHO-hDAP12-hTREM2. Human M2A macrophages were obtained from buffy coat using a negative isolation kit for monocytes (Stem cell technologies) and differentiated for 5 days in RPMI1640 medium with Glutamax (Gibco) supplemented with 10% FBS (Gibco), PenStrep (Gibco), 1% Sodium Pyruvate (Gibco), 0.025 M HEPES Buffer (Gibco), 0.05 mM β-mercaptoethanol (Gibco), M-CSF (40 ng/ml) and IL-4 (50 ng/ml). Cell surface TREM2 was detected by FACS as described above.
(§2) Human M2A macrophages or CHO-hDAP12-hTREM2 were seeded on 384 well plates (Greiner) and treated with ADAM inhibitors DPC333 or GI254023 at concentrations indicated in the figures. 16 h later cells were treated for 30 minutes with PMA (50 ng/ml) or 0.1% DMSO for 30 minutes. Plates were put on ice and stained with goat anti human TREM2 antibody AF1828 (R&D Systems) or isotype control and Hoechst stain followed by incubation with the secondary Alexa Fluor 488 conjugated anti goat antibody (Molecular Probes). Images were acquired using an InCe112000 analyzer (GE Healthcare). For image quantification the free open source software CellProfiler was applied.
To determine the contribution of ADAM10 or ADAM17 to shedding of TREM2 ectodomain, selective inhibitors were identified: DPC333 (Qian et al., Drug Metabolism and Disposition: the Biological Fate of Chemicals 35, 1916-1925, 2007) and GI254023 (Hundhausen et al., Blood. 2003; 102:1186-1195). DPC333 and GI254023 were characterized for inhibitory selectivity towards ADAM10 and ADAM17. […] Using live cell imaging, cell surface expression of hTREM2 was assessed in CHO-hDAP12-hTREM2 cells after overnight treatment of the cells with the two ADAM inhibitors under conditional shedding conditions (FIG. 2A) or after treatment of the cells with PMA (FIG. 2B). […] This effect might be attributed to true ADAM10 inhibition or it might be caused by unspecific inhibition of ADAM17 by GI254023 when used at high concentrations. […] To get closer to a physiological cellular system, a similar experiment was conducted in human M2A macrophages differentiated from CD^14+ human monocytes (FIGS. 2C-2D).

[2] = target: T2, ADAM17 (Homo sapiens, UniProt P78536); test: In vitro inhibition of recombinant ADAM17; assay type: biochemical; conditions: Hepes buffer pH 7.5
T2 sequence (P78536 215-824): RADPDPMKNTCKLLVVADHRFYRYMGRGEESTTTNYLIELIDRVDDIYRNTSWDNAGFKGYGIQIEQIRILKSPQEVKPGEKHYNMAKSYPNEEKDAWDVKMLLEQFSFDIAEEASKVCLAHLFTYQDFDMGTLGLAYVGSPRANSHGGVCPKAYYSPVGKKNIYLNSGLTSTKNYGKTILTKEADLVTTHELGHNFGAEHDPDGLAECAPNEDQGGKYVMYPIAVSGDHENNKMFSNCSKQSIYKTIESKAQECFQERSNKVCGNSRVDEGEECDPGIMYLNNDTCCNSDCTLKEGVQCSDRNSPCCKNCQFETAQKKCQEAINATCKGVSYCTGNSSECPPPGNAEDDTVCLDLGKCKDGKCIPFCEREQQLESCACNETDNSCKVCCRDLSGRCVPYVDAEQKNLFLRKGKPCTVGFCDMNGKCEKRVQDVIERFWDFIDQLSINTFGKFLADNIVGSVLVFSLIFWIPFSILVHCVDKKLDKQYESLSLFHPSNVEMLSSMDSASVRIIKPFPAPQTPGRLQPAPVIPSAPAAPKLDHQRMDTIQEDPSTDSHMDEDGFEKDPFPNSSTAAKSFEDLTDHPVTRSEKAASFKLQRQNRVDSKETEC

[3] = target: T1, ADAM10; test: In vitro inhibition of recombinant ADAM10; assay type: biochemical; conditions: Hepes buffer pH 7.5
Experimental: FIG. 2E is a line graph showing inhibition of recombinant ADAM10 and ADAM17 by DPC333 and GI254023 in vitro in Hepes buffer at pH 7.5.
Enzyme selectivity of the ADAM inhibitors applied was determined in an in vitro cleavage assay and both inhibitors were used over a broad concentration range to investigate effects on TREM2 cell surface expression in CHO-hDAP12-hTREM2 cells and human M2A macrophages.

[4] = system: human M2A macrophages; test: Live cell imaging of TREM2 cell surface expression in human M2A macrophages; assay type: cell-based; conditions: steady-state shedding, FIG. 2C
Source text: as §1, §2
To determine the contribution of ADAM10 or ADAM17 to shedding of TREM2 ectodomain, selective inhibitors were identified: DPC333 (Qian et al., Drug Metabolism and Disposition: the Biological Fate of Chemicals 35, 1916-1925, 2007) and GI254023 (Hundhausen et al., Blood. 2003; 102:1186-1195). DPC333 and GI254023 were characterized for inhibitory selectivity towards ADAM10 and ADAM17. […] Using live cell imaging, cell surface expression of hTREM2 was assessed in CHO-hDAP12-hTREM2 cells after overnight treatment of the cells with the two ADAM inhibitors under conditional shedding conditions (FIG. 2A) or after treatment of the cells with PMA (FIG. 2B). […]

[5] = target: T1, ADAM10; test: In vitro cleavage of TREM2 stalk region peptides by ADAM10; assay type: biochemical; conditions: data not shown
Source text: (§3) In order to identify the cleavage site of ADAM10/ADAM17 within the stalk region of TREM2, in vitro cleavage patterns of stalk region-derived peptides were investigated and confirmed the cleavage site by determination of the C-terminus of shed soluble TREM2 from cell culture supernatants. A series of peptides covering the stalk region were designed for in vitro investigation of ADAM10/ADAM17 cleavage (FIG. 5A). All peptides were obtained with an N-terminal 7-methoxycoumarin (Mca) fluorescent tag. Peptides 1-3, 1a and 2a were incubated with ADAM17 in neutral buffer for up to 48 hours, and reaction was followed by HPLC analysis of aliquots withdrawn at different time points.
(§4) HPLC-MS analysis of the reaction mixture of peptide3/ADAM17 identified one major product, SISRSLLEGEIPFP-NH2(SEQ ID NO: 51), together with 2 minor cleavage products (FIGS. 5B-5C). […] At these time points there was essentially no substrate left. Therefore, it can be concluded that the minor cleavage products originate from secondary ADAM17 cleavage of the main product.
Recent literature gave insight into ADAM10 and ADAM17 preferences for the cleavage of peptides and proteins (Caescu et al., Biochem J 424, 79-88, 2009; Tucher et al., J Proteome Res 13, 2205-2214, 2014). […] After searching for the least preferred amino acids in substrates of ADAM10 and 17, isoleucine was identified as never occurring in P1 of ADAM substrates, and a very low preference for aspartate or proline in P1′ and in P2′. […] In these peptides the H-SI cleavage site was replaced with IPP, IPD, and IDP, respectively.

[6] = target: T2, ADAM17; test: In vitro cleavage of TREM2 stalk region peptides by ADAM17 (HPLC); assay type: biochemical; conditions: neutral buffer, up to 48 hours, HPLC of parent peptide
Source text: FIGS. 5A-5E show ADAM17 cleaves TREM2 stalk region peptides in vitro at H157-S158. […] All peptides were obtained with an N-terminal 7-methoxycoumarin (Mca) fluorescent tag […]. Underlined amino acids indicates main sheddase cleavage site. AA112-171: SEQ ID NO: 24; Peptide 1: SEQ ID NO: 25; Peptide 2: SEQ ID NO: 26; Peptide 3: SEQ ID NO: 27; Peptide la: SEQ ID NO: 28; Peptide 2a: SEQ ID NO: 29; Peptide 4: SEQ ID NO: 30; Peptide 5: SEQ ID NO: 31; Peptide 6: SEQ ID NO: 32. […] FIG. 5C discloses SEQ ID NOS 83, 51 and 84, respectively, in order of appearance.
as §3, §4

[7] = system: HEK293-FT cells; test: FACS analysis of cell surface expression of TREM2 WT and mutants in HEK293-FT cells with or without PMA; assay type: cell-based; conditions: co-transfected with hDAP12, 48 h, 30 min 50 ng/ml PMA, ratio of 1 = complete inhibition of shedding, FIG. 4B
Source text: FIGS. 4A-4D show the amino acid stretch in the membrane proximal part of the TREM2 stalk region are important for shedding. […] Amino acid numbering according to iProt Q9NZC2. TM: transmembrane region. Gaps indicate deleted amino acids within the respective mutant. Exchanged amino acids in bold. Underlined amino acids indicates main sheddase cleavage site for generation of the C-terminus of TREM2 ectodomain. […] FIG. 4B is a bar graph showing FACS analysis of TREM2 WT and mutants transiently expressed in HEK293-FT cells. Cells were treated 48 hours after transfection with 50 ng/ml PMA or 0.05% DMSO. Cells were detached, labelled with AF1828 antiserum and analyzed by flow cytometry. Data are plotted as the ratio of untreated over PMA treatment for each mutant as mean±S.E. (n=3). Statistical differences to WT were calculated by Anova with Dunnett's multiple comparison test. *P<0.01. TREM2-double mutant was stably expressed in BWZ-lacZ-mDAP12 cells. Cells were seeded on an activating monoclonal antibody or isotype control and reporter gene activity assessed after 16 h. Data are plotted as the ratio of RGA for activating/control Ab as mean±S.E. (n=3). FIG. 4D is a bar graph showing replacement of the three amino acids at the sheddase cleavage site strongly increases TREM2 cell surface expression. FACS analysis of TREM2 WT and mutants transiently expressed in HEK293-FT cells. Cells were treated 48 h after transfection with 50 ng/ml PMA or 0.05% DMSO. Cells were detached, labelled with AF1828 antiserum and analyzed by flow cytometry. Data are plotted as the ratio of untreated over PMA treatment for each mutant as mean±S.E. (n=3). Statistical differences were calculated by Anova with Dunnett's multiple comparison test. *P<0.01.
Human TREM2 mutants were generated using the QuikChange Site-directed Mutagenesis Kit (Stratagene) and confirmed by sequence analysis. Transfections of complementary DNA (cDNA) constructs were carried out in a 1:1 ratio of hDAP12 and TREM2 in HEK-FT cells using Lipofectamine LTX reagent (Thermofischer) according to the manufacturer's recommendations. 48 h after transfection cells were treated for 30 min with 50 ng/ml PMA or 0.05% DMSO and detached with a cell detachment solution Accutase (Sigma) and stained with goat anti human TREM2 antibody AF1828 (R&D Systems) or isotype control followed by incubation with the secondary Alexa Fluor 488 conjugated antibody (Molecular Probes). Acquisition was performed using a BD FACSCanto II (BD biosciences).
Wild-type (WT) TREM2 or TREM2 mutants were transfected together with hDAP12 into HEK-FT cells. 48 h later cells were treated for 30 min with PMA to activate ADAMs at cell surface (see Sommer, Nature Communications 7, 11523, 2016). TREM2 cell surface expression was assessed by FACS, and results are presented as expression ratio of untreated over PMA treatment (FIG. 4B). The evaluation of each construct in the presence and absence of PMA treatment overcomes the possibility that some constructs might display different binding properties for the antiserum and allows direct comparison of changes in TREM2 cell surface expression after activation of sheddases. A ratio of 1 indicates complete inhibition of shedding. […] Next four shorter deletion mutants were generated encompassing this area, each 6 amino acids long (TRUNC1, T2del3-8, T2del6-11 and T2del11-16).

| Cleavage by ADAM10 [5] | Cleavage by ADAM17 [6] | Molecule | further results |
| --- | --- | --- | --- |
| – | – | CNC(=O)[C@@H](NC(=O)[C@H](CCCc1ccccc1)[C@H](C)N(O)C=O)C(C)(C)C [GI254023, (2R,3 S)-3-(formyl-hydroxyamino)-2-(3-phenyl-1-propyl) butanoic acid [(1S)-2,2-dimethyl-1-methylcarbamoyl-1-propyl] amide] | TREM2 cell surface levels ([1]; conditional shedding (steady state) conditions, FIG. 2A): limited effect; TREM2 cell surface levels ([1]; then PMA-treated cells, FIG. 2B): complete lack of effect; IC50 [2]: 196 nM; IC50 [3]: 1.5 nM; TREM2 cell surface expression [4]: small effect |
| very similar cleavage pattern | Significant cleavage | Peptide 3: TREM2 stalk region derived synthetic peptide with 7-methoxycoumarin (Mca) tag; SEQ ID NO: 27 (DAHVEHSISRSLLEGEIPFP; also: 7-methoxycoumarin (Mca) tag, position not given here) | – |
| cleavage resistant | resistant to in vitro cleavage | Peptide 4: TREM2 stalk peptide, H-SI cleavage site replaced with IPP; SEQ ID NO: 30 (DAHVEIPPSRSLLEGEIPFP) | – |
| slowly cleaved | resistant to in vitro cleavage | Peptide 5: TREM2 stalk peptide, H-SI cleavage site replaced with IPD; SEQ ID NO: 31 (DAHVEIPDSRSLLEGEIPFP) | – |
| slowly cleaved | resistant to in vitro cleavage | Peptide 6: TREM2 stalk peptide, H-SI cleavage site replaced with IDP; SEQ ID NO: 32 (DAHVEIDPSRSLLEGEIPFP) | – |
| – | – | T2-YGG: human TREM2 mutant, amino acids 156-164 replaced with larger hydrophobic residues; SEQ ID NO: 46 (protein) MEPLRLLILLFVTELSGAHNTTVFQGVAGQSLQVSCPYDSMKHWGRRKAWCRQLGEKGPCQRVVSTHNLWLLSFLRRWNGSTAITDDTLGGTLTITLRNLQPHDAGLYQCQSLHGSEADTLRKVLVEVLADPLDHRDAGDLWFPGESESFEDAHVYGGWGGWGPEGEIPFPPTSILLLLACIFLIKILAASALWAAAWHGQKPGTHPPSELDCGHDPGYQLQTLPGLRDT | PMA induced TREM2 shedding (TREM2 cell surface expression ratio of untreated over PMA treatment) [7]: trend for reduction of TREM2 shedding |
| – | – | T2-WFR: human TREM2 mutant, amino acids 169-172 replaced with larger hydrophobic residues; SEQ ID NO: 47 (protein) MEPLRLLILLFVTELSGAHNTTVFQGVAGQSLQVSCPYDSMKHWGRRKAWCRQLGEKGPCQRVVSTHNLWLLSFLRRWNGSTAITDDTLGGTLTITLRNLQPHDAGLYQCQSLHGSEADTLRKVLVEVLADPLDHRDAGDLWFPGESESFEDAHVEHSISRSLLEGEIWFRWTSILLLLACIFLIKILAASALWAAAWHGQKPGTHPPSELDCGHDPGYQLQTLPGLRDT | PMA induced TREM2 shedding (TREM2 cell surface expression ratio of untreated over PMA treatment) [7]: more efficacious |
